In paper PMC4295836 (Arteriosclerosis, thrombosis, and vascular biology, 2013):

T1: G-protein–coupled receptor kinase–interacting protein-1 (human (endogenous in HUVEC), UniProt Q9Y2X7 1-761)
T1 sequence (looked up): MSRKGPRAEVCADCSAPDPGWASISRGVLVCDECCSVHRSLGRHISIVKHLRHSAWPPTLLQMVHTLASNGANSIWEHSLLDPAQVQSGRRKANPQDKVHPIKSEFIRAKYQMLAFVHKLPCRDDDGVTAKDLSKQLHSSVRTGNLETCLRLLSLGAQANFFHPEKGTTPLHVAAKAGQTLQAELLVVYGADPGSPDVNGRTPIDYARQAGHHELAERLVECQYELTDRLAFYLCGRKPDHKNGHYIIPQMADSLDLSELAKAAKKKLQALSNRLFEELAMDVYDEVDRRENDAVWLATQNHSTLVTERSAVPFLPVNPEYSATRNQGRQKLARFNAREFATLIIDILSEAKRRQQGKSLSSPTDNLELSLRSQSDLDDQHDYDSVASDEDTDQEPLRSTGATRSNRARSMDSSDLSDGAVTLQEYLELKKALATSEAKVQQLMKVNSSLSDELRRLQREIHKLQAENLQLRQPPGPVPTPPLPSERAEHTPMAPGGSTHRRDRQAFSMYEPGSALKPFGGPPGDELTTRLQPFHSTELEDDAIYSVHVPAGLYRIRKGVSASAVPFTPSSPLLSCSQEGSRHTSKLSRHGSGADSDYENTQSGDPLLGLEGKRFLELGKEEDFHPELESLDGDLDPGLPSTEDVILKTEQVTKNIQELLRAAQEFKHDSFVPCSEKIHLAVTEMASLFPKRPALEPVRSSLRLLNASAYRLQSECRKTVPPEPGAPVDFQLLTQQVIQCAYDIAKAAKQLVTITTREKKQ


Biological target: T1, G-protein–coupled receptor …
Assay: co-IP

Binder	fold increase of association on VEGF (vs unstimulated)	fold increase of its level in the GIT1–cortactin complex on VEGF
cortactin (natural protein, human (endogenous in HUVEC), UniProt Q14247 1-550, looked up) MWKASAGHAVSIAQDDAGADDWETDPDFVNDVSEKEQRWGAKTVQGSGHQEHINIHKLRENVFQEHQTLKEKELETGPKASHGYGGKFGVEQDRMDKSAVGHEYQSKLSKHCSQVDSVRGFGGKFGVQMDRVDQSAVGFEYQGKTEKHASQKDYSSGFGGKYGVQADRVDKSAVGFDYQGKTEKHESQRDYSKGFGGKYGIDKDKVDKSAVGFEYQGKTEKHESQKDYVKGFGGKFGVQTDRQDKCALGWDHQEKLQLHESQKDYKTGFGGKFGVQSERQDSAAVGFDYKEKLAKHESQQDYSKGFGGKYGVQKDRMDKNASTFEDVTQVSSAYQKTVPVEAVTSKTSNIRANFENLAKEKEQEDRRKAEAERAQRMAKERQEQEEARRKLEEQARAKTQTPPVSPAPQPTEERLPSSPVYEDAASFKAELSYRGPVSGTEPEPVYSMEAADYREASSQQGLAYATEAVYESAEAPGHYPAEDSTYDEYENDLGITAVALYDYQAAGDDEISFDPDDIITNIEMIDDGWWRGVCKGRYGLFPANYVELRQ	6 fold	–
phosphorylated S405-cortactin (natural protein, human (endogenous in HUVEC), UniProt Q14247 1-550, looked up, phosphoserine at 405) MWKASAGHAVSIAQDDAGADDWETDPDFVNDVSEKEQRWGAKTVQGSGHQEHINIHKLRENVFQEHQTLKEKELETGPKASHGYGGKFGVEQDRMDKSAVGHEYQSKLSKHCSQVDSVRGFGGKFGVQMDRVDQSAVGFEYQGKTEKHASQKDYSSGFGGKYGVQADRVDKSAVGFDYQGKTEKHESQRDYSKGFGGKYGIDKDKVDKSAVGFEYQGKTEKHESQKDYVKGFGGKFGVQTDRQDKCALGWDHQEKLQLHESQKDYKTGFGGKFGVQSERQDSAAVGFDYKEKLAKHESQQDYSKGFGGKYGVQKDRMDKNASTFEDVTQVSSAYQKTVPVEAVTSKTSNIRANFENLAKEKEQEDRRKAEAERAQRMAKERQEQEEARRKLEEQARAKTQTPPVSPAPQPTEERLPSSPVYEDAASFKAELSYRGPVSGTEPEPVYSMEAADYREASSQQGLAYATEAVYESAEAPGHYPAEDSTYDEYENDLGITAVALYDYQAAGDDEISFDPDDIITNIEMIDDGWWRGVCKGRYGLFPANYVELRQ	–	4 fold
